Reference: US20250122242A1, “SELECTION SYSTEMS, PEPTIDES DETERMINED THEREWITH, AND METHODS OF USING SAME” (Wisconsin Alumni Research Foundation, priority 2023, published 2025)

Tests used:
hIAPP = molecular target: T1, hIAPP (Homo sapiens, UniProt P10997); experiment: Native mass spectrometry (nESI-MS) of peptide-hIAPP interaction; type: binding; settings: peptide:hIAPP stoichiometry of complex
T1 construct: A 1 mg portion of amylin trifluoroacetate salt (Bachem) was purchased as lyophilized solid in a vial; purchased Bachem
T1 sequence (P10997 34-70 limits assumed): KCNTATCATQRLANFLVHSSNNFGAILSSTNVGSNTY
Procedure: hIAPP was dissolved in 200 mM ammonium acetate buffer (pH 7.4) to prepare 100 μM hIAPP stock solution. Cyclic peptide was first dissolved in DMSO to 10 mM, then diluted into the buffer to make 1 mM cyclic peptide stock solution. These stock solutions were diluted into the buffer to achieve final concentrations of [hIAPP]=16 μM and [cyclic peptide]=64 μM. The percentage of DMSO in the final solution was 0.64% for all the samples. Prepared samples were incubated quiescently for 20 min at 32° C. Native ESI-MS analysis was then performed on a SELECT SERIES Cyclic IMS Q-TOF (Waters Corp., Wilmslow, U.K.) equipped with nano-ESI interface.
All the samples were analyzed using positive ionization ESI with a capillary voltage of 1.1 kV. The following instrumental parameters were used: source temperature 100° C.; desolvation temperature 250° C.; sampling cone 30 V; backing pressure 2.5 mbar; trap collision energy 6 V; trap DC −4 V; transfer collision energy 4 V. The system was calibrated with NaI cluster ions from a 2 μg/μL 50:50 2-propanol:water solution. Data were acquired over the m/z range of 50-8000 and processed using MassLynxV4.2 (Waters Corp., Wilmslow, U.K.).

Aβ42-T7n [1] = molecular target: T2, Aβ42-T7n (UniProt P00573+P05067); settings: for Fold enrichment in negative vs. positive selection: percent reads negative vs. positive selection; for Percent total reads (negative selection) / Rank (negative selection): subsequent negative selection against Aβ42, high-throughput sequencing
T2 sequence (P05067+P00573 fused): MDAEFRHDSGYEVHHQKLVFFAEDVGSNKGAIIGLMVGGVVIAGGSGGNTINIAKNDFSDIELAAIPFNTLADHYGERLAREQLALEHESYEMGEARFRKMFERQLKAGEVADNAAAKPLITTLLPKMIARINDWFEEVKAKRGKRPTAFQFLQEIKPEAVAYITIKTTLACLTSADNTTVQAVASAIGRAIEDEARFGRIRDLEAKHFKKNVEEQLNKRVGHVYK
Excerpt: To create a negative selection, we placed gIII-neg, a dominant-negative form of gIII,^44 under PT7 in our selection circuit. Inhibition of a non-target APP (ex. Aβ42) triggers pIII-neg expression and poisons phage proliferation. A second plasmid produces small amounts of pIII from the phage shock promoter (FIG. 16A). All SPs infecting cells encoding this negative selection receive sufficient pIII to propagate. However, SP that carry a promiscuous or false positive cyclic peptide will also produce pIII-neg and generate non-infectious progeny (FIGS. 16B and 16C). We subjected the hIAPP round 5 phage population to four rounds of negative selection, diluting the phage by 100-fold each round (FIG. 5B).
(§1) Single colonies of host cells transformed with the appropriate selection plasmids were used to make overnight cultures in 2×YT with maintenance antibiotics. The overnight culture was diluted (1:100) into 4-5 mL DRM with maintenance antibiotics and incubated at 37° C. with shaking until the OD600 of the culture reached ˜0.5, upon which the expanded phage library was added at a titer of 1×10^6 pfu/mL. The culture was incubated at 37° C. with shaking overnight (13-18 h). The next day, the culture was centrifuged at 8,000 rcf for 2 min to obtain the supernatant containing phage. The collected phage was diluted into fresh host cell cultures (10 to 1,000-fold) for the next round of selection, while the rest was stored at 4° C. for downstream analysis. This process was repeated until a significant increase in phage propagation was observed compared with the parent library. Both positive and negative selection rounds were performed using this procedure.
(§2) Sample preparation. Phage stocks collected from the final rounds of library selection were first amplified using LY0145 and LY0146. The PCR product was purified, and adapters added using LY0147 and LY0148. The resulting PCR product was purified and barcoded through a final PCR using index primers to add unique indices for shared Illumina NovaSeq sequencing. The final PCR product was purified, and the concentration measured by Nanodrop. Further sample quality control was performed by the University of Wisconsin-Madison Biotechnology Center (UWBC).
(§3) High-throughput sequencing and data analysis. High-throughput sequencing was performed by UWBC using a shared sequencing service on the NovaSeq 6000 platform. Sequencing reads were demultiplexed by UWBC and analyzed using custom-written Python scripts.

hIAPP-T7n [2] = molecular target: T3, hIAPP-T7n (UniProt P00573+P10997); settings: for Percent total reads (positive selection) / Rank (positive selection): positive selection on hIAPP, high-throughput sequencing; for Rank (positive selection): top enriched sequences
T3 sequence (P10997+P00573 fused): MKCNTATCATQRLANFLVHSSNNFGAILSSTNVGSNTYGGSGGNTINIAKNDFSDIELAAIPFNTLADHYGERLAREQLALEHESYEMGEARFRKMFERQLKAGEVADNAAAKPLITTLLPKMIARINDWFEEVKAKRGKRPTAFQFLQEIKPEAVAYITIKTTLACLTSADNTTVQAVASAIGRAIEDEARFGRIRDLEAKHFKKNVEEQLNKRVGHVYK
Excerpt: (§4) Next, we examined if our system could discover inhibitors of other disease-associated APPs. We targeted human islet amyloid polypeptide (hIAPP), which forms amyloid deposits in patients with type-2 diabetes that are hypothesized to contribute to […] dysfunction.^40 To create a selection for hIAPP aggregation inhibitors, we simply cloned hIAPP in place of Aβ42 in our selection circuit (FIG. 2B). We used an SP-encoded CZ6 SICLOPPS library (Z=NDT codon encoded amino acid: R, N, D, C, G, H, I, L, F, S, Y, or V) (˜3×10^6 total sequences). This codon set was chosen to reduce the theoretical library size and facilitate library cloning. The library (total of ˜5×10^6 transformants) was cloned on a SP obtained from an additional 250 hours of PACE using a more stringent selection (FIGS. 10A-10D).
We performed five rounds of selection, diluting the SP pool by ten-fold each round (FIG. 4A). […] To verify that we selected phage with higher activity, we measured the propagation of the SP from each round on hIAPP selection cells, normalizing input phage titers to […] to enable head-to-head comparison between phage pools.
as §1, §2, §3

Aβ42-T7n [3] = molecular target: T2, Aβ42-T7n; settings: clonal SP encoding the sequence
Excerpt: Therefore, we turned to a split-T7 RNA polymerase (T7 RNAP) reporter used to evolve proteins with improved soluble expression.^33 In our new selection, host E. coli express an aggregation-prone protein (APP) fused to the N-terminal half of split-T7 RNAP (T7n). When the APP-T7n fusion is translated, it misfolds due to the APP, preventing T7n from associating with the C-terminal half of split-T7 RNAP (T7c; FIG. 2A). If a SP-encoded inhibitor binds to and prevents APP aggregation, the fused T7n will remain folded and join with T7c to produce full-length T7 RNAP. The reconstituted T7 RNAP then transcribes gIII, which we place under control of the T7 promoter (PT7), producing pill and allowing the SP to reproduce (FIGS. 2A and 2B).
We used the SICLOPPS method to biosynthesize cyclic peptides that can be selected in E. coli.^15 In SICLOPPS, a precursor fusion consisting of the C-terminal half of the Ssp DnaE split intein, the peptide sequence to be cyclized, and the N-terminal half of the same split intein undergoes intein splicing after translation to produce head-to-tail cyclized peptides (FIG. 7).
(§5) Strain S206035 was used for plasmid cloning, amplification, and phage assays. Strain S220835 was used for SP cloning and plaque assays. Plasmids and SPs were cloned by USER assembly or blunt-end ligation. Competent cells were prepared and transformed using the TSS method. Phage propagation and plaque assays were performed as previously described.^54 Unless otherwise noted, phage propagation assays used an input of […] phage to infect a 2 mL culture of host cells.

hIAPP-T7n [4] = molecular target: T3, hIAPP-T7n; settings: clonal SP encoding the sequence (FIG. 5E)
Excerpt: as §4, §5

CDLGVFR (cyclised; Circular) [cyclo-CDLGVFR]
complex with hIAPP detected by native mass spectrometry (hIAPP): 1:1 complexes | Fold enrichment in negative vs. positive selection (Aβ42-T7n [1]): 410.79 | Percent total reads (negative selection) (Aβ42-T7n [1]): 31.22% | Rank (negative selection) (Aβ42-T7n [1]): 1 | Percent total reads (positive selection) (hIAPP-T7n [2]): 0.08% | Rank (positive selection) (hIAPP-T7n [2]): 14

CHVVGVI (cyclised; Circular) [cyclo-CHVVGVI]
phage propagation activity (fitness) on Aβ42-T7n selection (Aβ42-T7n [3]): propagated robustly | phage propagation activity on hIAPP-T7n selection (hIAPP-T7n [4]): propagated robustly | complex with hIAPP detected by native mass spectrometry (hIAPP): 1:1 complex | Fold enrichment in negative vs. positive selection (Aβ42-T7n [1]): 0.003 | Percent total reads (negative selection) (Aβ42-T7n [1]): 0.29% | Rank (negative selection) (Aβ42-T7n [1]): 20 | Percent total reads (positive selection) (hIAPP-T7n [2]): 94.40% | share of sequencing reads in SP pool (hIAPP-T7n [2]; round 5 of hIAPP positive selection, deep sequencing): ~95% | Rank (positive selection) (hIAPP-T7n [2]): 1

CRCVFSG (cyclised; Circular) [cyclo-CRCVFSG]
complex with hIAPP detected by native mass spectrometry (hIAPP): 1:1 complexes | Fold enrichment in negative vs. positive selection (Aβ42-T7n [1]): 701.46 | Percent total reads (negative selection) (Aβ42-T7n [1]): 24.55% | Rank (negative selection) (Aβ42-T7n [1]): 2 | Percent total reads (positive selection) (hIAPP-T7n [2]): 0.04% | Rank (positive selection) (hIAPP-T7n [2]): 20
